According to publication PMC2994652 (Biochemistry, 2010):
Where “and” joins values, the source holds several entries; their conditions need not be identical. Equal values may be shown once.

These molecules were tested against yeast Cox11-Trx (fusion of the extramembrane domain of yeast Cox11 with E. coli thioredoxin) (yeast) (assay: SEC).

yeast Cox11-Trx (fusion of the extramembrane domain of yeast Cox11 with E. coli thioredoxin) (domain or fragment), sequence (P19516 106-300 limits assumed): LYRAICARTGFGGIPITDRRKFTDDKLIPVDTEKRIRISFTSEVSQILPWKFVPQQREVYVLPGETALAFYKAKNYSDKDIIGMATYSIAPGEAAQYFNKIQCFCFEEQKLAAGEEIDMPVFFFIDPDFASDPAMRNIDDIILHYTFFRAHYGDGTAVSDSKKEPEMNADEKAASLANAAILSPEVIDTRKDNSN

stoichiometry N | Molecule
2 and 4 | yeast Cox11-Trx (fusion of the extramembrane domain of yeast Cox11 with E. coli thioredoxin) (domain or fragment)

Biological target: the molecule itself
Assay: SEC

Molecule | stoichiometry N
C126A Cox11-Trx (domain or fragment, Rhodobacter sphaeroides, UniProt P56940 32-191, looked up) NWFCRVTGFAGTTAVATEAPAEVLDRTVKVRFDASREAGMPWEFRPLQREMKLKIGETGLAFYEAYNPTDRTVAGTASYNVTPDAAGGYFAKIAAFCFTEQVLAPGERVEMPVTFYVDPAIIDDPDGRYVRQITLSYTFHETALTEEQAALAAESATDVN | 4
C128A Cox11-Trx (domain or fragment, Rhodobacter sphaeroides, UniProt P56940 32-191, looked up) NWFCRVTGFAGTTAVATEAPAEVLDRTVKVRFDASREAGMPWEFRPLQREMKLKIGETGLAFYEAYNPTDRTVAGTASYNVTPDAAGGYFAKIACFAFTEQVLAPGERVEMPVTFYVDPAIIDDPDGRYVRQITLSYTFHETALTEEQAALAAESATDVN | 4
K123E Cox11-Trx (domain or fragment, Rhodobacter sphaeroides, UniProt P56940 32-191, looked up) NWFCRVTGFAGTTAVATEAPAEVLDRTVKVRFDASREAGMPWEFRPLQREMKLKIGETGLAFYEAYNPTDRTVAGTASYNVTPDAAGGYFAEIACFCFTEQVLAPGERVEMPVTFYVDPAIIDDPDGRYVRQITLSYTFHETALTEEQAALAAESATDVN | 4
K123R Cox11-Trx (domain or fragment, Rhodobacter sphaeroides, UniProt P56940 32-191, looked up) NWFCRVTGFAGTTAVATEAPAEVLDRTVKVRFDASREAGMPWEFRPLQREMKLKIGETGLAFYEAYNPTDRTVAGTASYNVTPDAAGGYFARIACFCFTEQVLAPGERVEMPVTFYVDPAIIDDPDGRYVRQITLSYTFHETALTEEQAALAAESATDVN | 4
C126A-C128A Cox11-Trx (domain or fragment, Rhodobacter sphaeroides, UniProt P56940 32-191, looked up) NWFCRVTGFAGTTAVATEAPAEVLDRTVKVRFDASREAGMPWEFRPLQREMKLKIGETGLAFYEAYNPTDRTVAGTASYNVTPDAAGGYFAKIAAFAFTEQVLAPGERVEMPVTFYVDPAIIDDPDGRYVRQITLSYTFHETALTEEQAALAAESATDVN | 4
F127I Cox11-Trx (domain or fragment, Rhodobacter sphaeroides, UniProt P56940 32-191, looked up) NWFCRVTGFAGTTAVATEAPAEVLDRTVKVRFDASREAGMPWEFRPLQREMKLKIGETGLAFYEAYNPTDRTVAGTASYNVTPDAAGGYFAKIACICFTEQVLAPGERVEMPVTFYVDPAIIDDPDGRYVRQITLSYTFHETALTEEQAALAAESATDVN | 4
E131K Cox11-Trx (domain or fragment, Rhodobacter sphaeroides, UniProt P56940 32-191, looked up) NWFCRVTGFAGTTAVATEAPAEVLDRTVKVRFDASREAGMPWEFRPLQREMKLKIGETGLAFYEAYNPTDRTVAGTASYNVTPDAAGGYFAKIACFCFTKQVLAPGERVEMPVTFYVDPAIIDDPDGRYVRQITLSYTFHETALTEEQAALAAESATDVN | 4
F129Y Cox11-Trx (domain or fragment, Rhodobacter sphaeroides, UniProt P56940 32-191, looked up) NWFCRVTGFAGTTAVATEAPAEVLDRTVKVRFDASREAGMPWEFRPLQREMKLKIGETGLAFYEAYNPTDRTVAGTASYNVTPDAAGGYFAKIACFCYTEQVLAPGERVEMPVTFYVDPAIIDDPDGRYVRQITLSYTFHETALTEEQAALAAESATDVN | 4
C35S-C126A-C128A Cox11-Trx (domain or fragment, Rhodobacter sphaeroides, UniProt P56940 32-191, looked up) NWFSRVTGFAGTTAVATEAPAEVLDRTVKVRFDASREAGMPWEFRPLQREMKLKIGETGLAFYEAYNPTDRTVAGTASYNVTPDAAGGYFAKIAAFAFTEQVLAPGERVEMPVTFYVDPAIIDDPDGRYVRQITLSYTFHETALTEEQAALAAESATDVN | 4
K123L Cox11-Trx (domain or fragment, Rhodobacter sphaeroides, UniProt P56940 32-191, looked up) NWFCRVTGFAGTTAVATEAPAEVLDRTVKVRFDASREAGMPWEFRPLQREMKLKIGETGLAFYEAYNPTDRTVAGTASYNVTPDAAGGYFALIACFCFTEQVLAPGERVEMPVTFYVDPAIIDDPDGRYVRQITLSYTFHETALTEEQAALAAESATDVN | 4
K123L-E131K Cox11-Trx (domain or fragment, Rhodobacter sphaeroides, UniProt P56940 32-191, looked up) NWFCRVTGFAGTTAVATEAPAEVLDRTVKVRFDASREAGMPWEFRPLQREMKLKIGETGLAFYEAYNPTDRTVAGTASYNVTPDAAGGYFALIACFCFTKQVLAPGERVEMPVTFYVDPAIIDDPDGRYVRQITLSYTFHETALTEEQAALAAESATDVN | 4
F127Y Cox11-Trx (domain or fragment, Rhodobacter sphaeroides, UniProt P56940 32-191, looked up) NWFCRVTGFAGTTAVATEAPAEVLDRTVKVRFDASREAGMPWEFRPLQREMKLKIGETGLAFYEAYNPTDRTVAGTASYNVTPDAAGGYFAKIACYCFTEQVLAPGERVEMPVTFYVDPAIIDDPDGRYVRQITLSYTFHETALTEEQAALAAESATDVN | 4

Biological target: the molecule itself
Assay: SEC
Remark: another data set of the same source

Molecule | stoichiometry N
C35S Cox11-Trx (domain or fragment, Rhodobacter sphaeroides, UniProt P56940 32-191, looked up) NWFSRVTGFAGTTAVATEAPAEVLDRTVKVRFDASREAGMPWEFRPLQREMKLKIGETGLAFYEAYNPTDRTVAGTASYNVTPDAAGGYFAKIACFCFTEQVLAPGERVEMPVTFYVDPAIIDDPDGRYVRQITLSYTFHETALTEEQAALAAESATDVN | 2 and 4
Cox11 domain of R. sphaeroides Cox11-Trx after cleavage from Trx (domain or fragment, Rhodobacter sphaeroides, UniProt P56940 32-191, looked up) NWFCRVTGFAGTTAVATEAPAEVLDRTVKVRFDASREAGMPWEFRPLQREMKLKIGETGLAFYEAYNPTDRTVAGTASYNVTPDAAGGYFAKIACFCFTEQVLAPGERVEMPVTFYVDPAIIDDPDGRYVRQITLSYTFHETALTEEQAALAAESATDVN | 4
Y110R Cox11-Trx (domain or fragment, Rhodobacter sphaeroides, UniProt P56940 32-191, looked up) NWFCRVTGFAGTTAVATEAPAEVLDRTVKVRFDASREAGMPWEFRPLQREMKLKIGETGLAFYEAYNPTDRTVAGTASRNVTPDAAGGYFAKIACFCFTEQVLAPGERVEMPVTFYVDPAIIDDPDGRYVRQITLSYTFHETALTEEQAALAAESATDVN | 4
K123L Cox11-Trx (domain or fragment, Rhodobacter sphaeroides, UniProt P56940 32-191, looked up) NWFCRVTGFAGTTAVATEAPAEVLDRTVKVRFDASREAGMPWEFRPLQREMKLKIGETGLAFYEAYNPTDRTVAGTASYNVTPDAAGGYFALIACFCFTEQVLAPGERVEMPVTFYVDPAIIDDPDGRYVRQITLSYTFHETALTEEQAALAAESATDVN | 2
Y110E Cox11-Trx (domain or fragment, Rhodobacter sphaeroides, UniProt P56940 32-191, looked up) NWFCRVTGFAGTTAVATEAPAEVLDRTVKVRFDASREAGMPWEFRPLQREMKLKIGETGLAFYEAYNPTDRTVAGTASENVTPDAAGGYFAKIACFCFTEQVLAPGERVEMPVTFYVDPAIIDDPDGRYVRQITLSYTFHETALTEEQAALAAESATDVN | 4
K123L-E131K Cox11-Trx (domain or fragment, Rhodobacter sphaeroides, UniProt P56940 32-191, looked up) NWFCRVTGFAGTTAVATEAPAEVLDRTVKVRFDASREAGMPWEFRPLQREMKLKIGETGLAFYEAYNPTDRTVAGTASYNVTPDAAGGYFALIACFCFTKQVLAPGERVEMPVTFYVDPAIIDDPDGRYVRQITLSYTFHETALTEEQAALAAESATDVN | 2
